System: mouse ES cells (ES-D3)
Test: Hepatocyte-specific gene expression in differentiated mouse ES cells, real-time quantitative RT-PCR
Details: mouse ES cells, IMDM, collagen type I, day 33, FIG. 2A
Protocol: Mouse ES cell line ES-D3 and mouse STO fibroblasts were obtained from the American Type Culture Collection, Manassas, Va. ES cells were expanded on STO fibroblast feeder layers in Dulbecco's modified Eagle's medium (DMEM) (unless specified, cell culture supplies were from Invitrogen, Carlsbad, Calif.) containing 15% fetal bovine serum (FBS), 1 mM L-glutamine, 60 μM non-essential amino acid solution, 0.1 mM 2-mercaptoethanol, 10 mM HEPES (Sigma-Aldrich, Saint Louis, Mo.), 1400 U/ml leukemia inhibitory factor (LIF) (Chemicon International, Temecula, Calif.), and penicillin/streptomycin at standard concentrations. To prepare feeder layers, STO fibroblasts were cultured until confluent and treated with 10 μg/ml mitomycin C (Sigma-Aldrich) for 4 hours. […]
Total RNA was extracted with RNeasy Mini Kit (Qiagen, Valencia, Calif.). Real time quantitative RT-PCR was employed for the determination of gene expression as described in detail previously by our group (Wege, H. et al., Gastroenterology 124:432-444 (2003)). […] Relative mouse or human gene expression analysis (ΔΔCT) was performed by real-time quantitative PCR with the ABI Prism 7700 Sequence Detection System and SYBR PCR Green Master Mix or TaqMan PCR Master Mix (Applied Biosystems, Foster City, Calif.). […] Normalized expression of hepatocyte-specific genes was compared to levels detected in primary adult mouse or human hepatocytes.

B1: OnM: oncostatin M (protein, UniProt P13725 26-221, looked up)
Oncostatin-M: AAIGSCSKEYRVLLGQLQKQTDLMQDTSRLLDPYIRIQGLDVPKLREHCRERPGAFPSEETLRGLGRRGFLQTLNATLGCVLHRLADLEQRLPKAQDLERSGLNIEDLEKLQMARPNILGLRNNIYCMAQLLDNSDTAEPTKAGRGASQPPTPTPASDAFQRKLEGCRFLHGYHRFMHSVGRVFSKWGESPNRSRR
albumin gene expression (effect of individual growth and differentiation factors): only minor positive or even negative effects

Reference: US20050170502A1, “Methods for maintaining hepatocytes in culture and for differentiating embryonic stem cells along a hepatocyte lineage” (REGENTS OF THE UNIVERSITY OF CALIFORNIA, priority 2003, published 2005)
